B1: SPACA3 (parent)
chain: FTSGFNAAALDYEADGSTNNGIFQ
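Further: lentivirally expressed fusions sorted by FACS into six bins by GFP to DsRed ratio, PSI derived from sequencing read proportions per bin multiplied by bin number.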

In this data set the parent is B1. In words: protein stability index of a GFP-peptide fusion (GPS, HEK-293T) (PSI 1-6); higher = more stable. The note with it: c terminus: a fixed tail appended.
For the variant FTSEFNAAALDYEADGSTNNGIFQ [G4E], the protein stability index is 2.22.

On to FTSTFNAAALDYEADGSTNNGIFQ [G4T], for which the protein stability index is 2.42.

For the variant FTSLFNAAALDYEADGSTNNGIFQ [G4L], the protein stability index is 1.7.

FTSDFNAAALDYEADGSTNNGIFQ [G4D]: the protein stability index is 2.79.

Regarding FTSQFNAAALDYEADGSTNNGIFQ [G4Q], the protein stability index is 2.43.

With FTSNFNAAALDYEADGSTNNGIFQ [G4N], the protein stability index came to 2.3.

Turning to FTSSFNAAALDYEADGSTNNGIFQ [G4S], the protein stability index stood at 2.38.

For FTSKFNAAALDYEADGSTNNGIFQ [G4K], the protein stability index worked out at 1.98.

Turning to FTSVFNAAALDYEADGSTNNGIFQ [G4V], the protein stability index is 2.21.

Take FTSAFNAAALDYEADGSTNNGIFQ [G4A]: the protein stability index was 1.82.

Regarding FTSIFNAAALDYEADGSTNNGIFQ [G4I], the protein stability index came to 2.15.

Take FTSPFNAAALDYEADGSTNNGIFQ [G4P]: the protein stability index came out at 2.78.

For FTSWFNAAALDYEADGSTNNGIFQ [G4W], the protein stability index came to 2.98.

Consider FTSHFNAAALDYEADGSTNNGIFQ [G4H], for which the protein stability index was determined as 2.59.

As to FTSMFNAAALDYEADGSTNNGIFQ [G4M], the protein stability index stood at 1.74.

On to FTSFFNAAALDYEADGSTNNGIFQ [G4F], for which the protein stability index worked out at 2.13.

Turning to FTSCFNAAALDYEADGSTNNGIFQ [G4C], the protein stability index was determined as 1.94.

Consider FTSYFNAAALDYEADGSTNNGIFQ [G4Y], for which the protein stability index is 1.68.

In the case of FTSRFNAAALDYEADGSTNNGIFQ [G4R], the protein stability index was 1.87.

For the variant FTKGFNAAALDYEADGSTNNGIFQ [S3K], the protein stability index is 2.97.

In the case of FTDGFNAAALDYEADGSTNNGIFQ [S3D], the protein stability index came to 2.55.

For FTYGFNAAALDYEADGSTNNGIFQ [S3Y], the protein stability index was 2.03.

On to FTMGFNAAALDYEADGSTNNGIFQ [S3M], for which the protein stability index stood at 2.52.

For the variant FTNGFNAAALDYEADGSTNNGIFQ [S3N], the protein stability index amounted to 2.56.

For the variant FTTGFNAAALDYEADGSTNNGIFQ [S3T], the protein stability index worked out at 1.84.

FTHGFNAAALDYEADGSTNNGIFQ [S3H]: the protein stability index was 2.14.

FTVGFNAAALDYEADGSTNNGIFQ [S3V]: the protein stability index is 2.07.

For the variant FTFGFNAAALDYEADGSTNNGIFQ [S3F], the protein stability index was 2.12.

On to FTGGFNAAALDYEADGSTNNGIFQ [S3G], for which the protein stability index is 4.05.

Consider FTEGFNAAALDYEADGSTNNGIFQ [S3E], for which the protein stability index was found to be 2.

As to FTLGFNAAALDYEADGSTNNGIFQ [S3L], the protein stability index turned out to be 2.2.

Regarding FTQGFNAAALDYEADGSTNNGIFQ [S3Q], the protein stability index was determined as 2.19.

On to FTCGFNAAALDYEADGSTNNGIFQ [S3C], for which the protein stability index came to 1.65.

In the case of FTIGFNAAALDYEADGSTNNGIFQ [S3I], the protein stability index was determined as 1.76.

On to FTWGFNAAALDYEADGSTNNGIFQ [S3W], for which the protein stability index is 2.26.

Regarding FTRGFNAAALDYEADGSTNNGIFQ [S3R], the protein stability index came to 2.46.

FTPGFNAAALDYEADGSTNNGIFQ [S3P]: the protein stability index was 2.29.

Take FTAGFNAAALDYEADGSTNNGIFQ [S3A]: the protein stability index was determined as 2.37.

Consider FQSGFNAAALDYEADGSTNNGIFQ [T2Q], for which the protein stability index came to 2.26.

As to FNSGFNAAALDYEADGSTNNGIFQ [T2N], the protein stability index stood at 3.81.

Turning to FYSGFNAAALDYEADGSTNNGIFQ [T2Y], the protein stability index was 2.75.

Regarding FPSGFNAAALDYEADGSTNNGIFQ [T2P], the protein stability index came out at 2.07.

On to FRSGFNAAALDYEADGSTNNGIFQ [T2R], for which the protein stability index came to 2.71.

As to FSSGFNAAALDYEADGSTNNGIFQ [T2S], the protein stability index stood at 2.88.

Turning to FWSGFNAAALDYEADGSTNNGIFQ [T2W], the protein stability index amounted to 2.91.

Regarding FVSGFNAAALDYEADGSTNNGIFQ [T2V], the protein stability index is 2.31.

As to FTSGVNAAALDYEADGSTNNGIFQ [F5V], the protein stability index turned out to be 4.01.

Regarding FTSGGNAAALDYEADGSTNNGIFQ [F5G], the protein stability index came out at 3.63.

With FTSGQNAAALDYEADGSTNNGIFQ [F5Q], the protein stability index was 4.12.

Take FTSGWNAAALDYEADGSTNNGIFQ [F5W]: the protein stability index amounted to 3.06.

For the variant FTSGMNAAALDYEADGSTNNGIFQ [F5M], the protein stability index came to 3.25.

For the variant FTSGCNAAALDYEADGSTNNGIFQ [F5C], the protein stability index stood at 3.03.

As to FTSGNNAAALDYEADGSTNNGIFQ [F5N], the protein stability index was 4.47.

Consider FTSGSNAAALDYEADGSTNNGIFQ [F5S], for which the protein stability index is 4.18.

On to FTSGKNAAALDYEADGSTNNGIFQ [F5K], for which the protein stability index worked out at 3.8.

In the case of FTSGPNAAALDYEADGSTNNGIFQ [F5P], the protein stability index was 3.81.

FTSGLNAAALDYEADGSTNNGIFQ [F5L]: the protein stability index came to 3.11.

On to FTSGRNAAALDYEADGSTNNGIFQ [F5R], for which the protein stability index was 3.25.

For FTSGANAAALDYEADGSTNNGIFQ [F5A], the protein stability index was found to be 4.07.

In the case of FTSGINAAALDYEADGSTNNGIFQ [F5I], the protein stability index is 3.14.

Take FTSGENAAALDYEADGSTNNGIFQ [F5E]: the protein stability index was 4.38.

On to FTSGDNAAALDYEADGSTNNGIFQ [F5D], for which the protein stability index is 4.79.

In the case of FTSGYNAAALDYEADGSTNNGIFQ [F5Y], the protein stability index amounted to 2.18.

Consider FTSGTNAAALDYEADGSTNNGIFQ [F5T], for which the protein stability index worked out at 4.06.

As for FTSGHNAAALDYEADGSTNNGIFQ [F5H], the protein stability index is 3.55.

Take FTSGFHAAALDYEADGSTNNGIFQ [N6H]: the protein stability index is 2.38.

Consider FTSGFPAAALDYEADGSTNNGIFQ [N6P], for which the protein stability index was found to be 1.61.

On to FTSGFAAAALDYEADGSTNNGIFQ [N6A], for which the protein stability index was 1.84.

For FTSGFLAAALDYEADGSTNNGIFQ [N6L], the protein stability index was determined as 2.78.

Turning to FTSGFWAAALDYEADGSTNNGIFQ [N6W], the protein stability index was determined as 3.02.

In the case of FTSGFSAAALDYEADGSTNNGIFQ [N6S], the protein stability index is 1.85.

Take FTSGFKAAALDYEADGSTNNGIFQ [N6K]: the protein stability index was 2.45.

Consider FTSGFGAAALDYEADGSTNNGIFQ [N6G], for which the protein stability index came out at 1.83.

For FTSGFCAAALDYEADGSTNNGIFQ [N6C], the protein stability index is 3.

For the variant FTSGFTAAALDYEADGSTNNGIFQ [N6T], the protein stability index was determined as 1.61.

Turning to FTSGFDAAALDYEADGSTNNGIFQ [N6D], the protein stability index stood at 2.99.

FTSGFQAAALDYEADGSTNNGIFQ [N6Q]: the protein stability index worked out at 1.94.

In the case of FTSGFYAAALDYEADGSTNNGIFQ [N6Y], the protein stability index is 2.82.

Turning to FTSGFEAAALDYEADGSTNNGIFQ [N6E], the protein stability index is 2.88.

With FTSGFRAAALDYEADGSTNNGIFQ [N6R], the protein stability index turned out to be 1.41.

Regarding FTSGFVAAALDYEADGSTNNGIFQ [N6V], the protein stability index stood at 2.08.

Regarding FTSGFFAAALDYEADGSTNNGIFQ [N6F], the protein stability index stood at 3.46.

On to FTSGFMAAALDYEADGSTNNGIFQ [N6M], for which the protein stability index turned out to be 3.01.

In the case of FTSGFIAAALDYEADGSTNNGIFQ [N6I], the protein stability index was 1.43.

On to FTSGFNDAALDYEADGSTNNGIFQ [A7D], for which the protein stability index was found to be 2.62.

Take FTSGFNEAALDYEADGSTNNGIFQ [A7E]: the protein stability index is 2.8.

On to FTSGFNKAALDYEADGSTNNGIFQ [A7K], for which the protein stability index is 1.83.

In the case of FTSGFNHAALDYEADGSTNNGIFQ [A7H], the protein stability index was found to be 2.2.

For FTSGFNMAALDYEADGSTNNGIFQ [A7M], the protein stability index came to 2.14.

Regarding FTSGFNLAALDYEADGSTNNGIFQ [A7L], the protein stability index was determined as 2.88.

In the case of FTSGFNIAALDYEADGSTNNGIFQ [A7I], the protein stability index was determined as 2.13.

With FTSGFNFAALDYEADGSTNNGIFQ [A7F], the protein stability index is 3.08.

Take FTSGFNGAALDYEADGSTNNGIFQ [A7G]: the protein stability index was 2.13.

Regarding FTSGFNCAALDYEADGSTNNGIFQ [A7C], the protein stability index amounted to 2.08.

(Values after the supplement of paper PMC10567573.)
